± gives the uncertainty stated by the source.
Experiment: self-splicing fitness, log relative to wild type (ln ratio); higher = more splicing; Tetrahymena group I intron in knt gene, E. coli kanamycin selection, DiMSum; sequences stand for … in CUCUCU…GGAGGGAAAAGUUAUCAGGCAUGCACCUGGUAGCUAGUCUUUAAACCAAUAGAUUGCAUCGGUUUAAAAGGCAAGACCGUCAAAUUGCGGGAAAGGGGUCAACAGCCGUUCAGUACCAAGUCUCAGGGGAAACUUUGAGAUGGCCUUGCAAAGGGUAUGGUAAUAAGCUGACGGACAUGGUCCUAACCACGCAGCCAAGUCCUAAGUCAACAGAUCUUCUGUUGAUAUGGAUGCAGUUCACAGACUAAAUGUCGGUCGGGGAAGAUGUAUUCUUCUCAUAAGAUAUAGUCGGACCUCUCCUUAAUGGGAGCUAGCGGAUGAAGUGAUGCAACACUGGAGCCGCUGGGAACUAAUUUGUAUGCGAAAGUAUAUUGAUUAGUUUUGGAGUACUCGUGGUCG
Outline: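 Fitness was computed with DiMSum as the error-weighted combination of replicate fold changes, kanamycin versus none, each normalised to wild type. The library randomised all eight intron nucleotides of the P1ex region, with the intron placed in the knt kanamycin-resistance gene on pET-22b(+) in E. coli BL21(DE3). Six replicate transformations were grown overnight at 37°C or 30°C on LB agar with or without 25 μg/mL kanamycin, plus 100 μg/mL carbenicillin, 50 μM IPTG and 0.2% rhamnose. Pooled colonies were amplicon-sequenced on an Illumina HiSeq 2500.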

Sequence | self-splicing fitness (ln) (30 °C) | self-splicing fitness (ln) (37 °C)
UAUUAGCAAUAUUACGAUAA | -1.07 ± 0.19 | 0.628 ± 0.16
UAUUAGCAAUAUUACGAUAC | – | -1.13 ± 0.24
UAUUAGCAAUAUUACGAUUC | -1.88 ± 0.16 | -0.062 ± 0.18
UAUUAGCAAUAUUACGCAUA | -0.754 ± 0.29 | -0.355 ± 0.26
UAUUAGCAAUAUUACGCCAA | -1.65 ± 0.2 | -1.68 ± 0.23
UAUUAGCAAUAUUACGCCCU | -1.3 ± 0.21 | 0.526 ± 0.2
UAUUAGCAAUAUUACGCCGA | -2.3 ± 0.31 | -0.195 ± 0.28
UAUUAGCAAUAUUACGCCUG | -0.0456 ± 0.13 | 0.00497 ± 0.16
UAUUAGCAAUAUUACGGCGA | -0.206 ± 0.15 | -0.325 ± 0.16
UAUUAGCAAUAUUACGGGCU | -3.47 ± 0.27 | -2.3 ± 0.23
UAUUAGCAAUAUUACGGGUU | -2.08 ± 0.13 | -1.77 ± 0.2
UAUUAGCAAUAUUACGUAAC | -1.8 ± 0.19 | -1.09 ± 0.2
UAUUAGCAAUAUUACGUGCU | -2.12 ± 0.12 | -2.04 ± 0.15
UAUUAGCAAUAUUACGUUUA | -1.6 ± 0.21 | 0.132 ± 0.2
UCAAAGCAAUAUUACGAGUA | -2.07 ± 0.083 | -0.678 ± 0.072
UCAAAGCAAUAUUACGAUAU | -3.62 ± 0.23 | -2.67 ± 0.18
UCAAAGCAAUAUUACGAUCA | -0.91 ± 0.12 | -0.719 ± 0.11
UCAAAGCAAUAUUACGAUCC | -3.21 ± 0.3 | -2.34 ± 0.4
UCAAAGCAAUAUUACGCAUA | -2.68 ± 0.17 | -1.62 ± 0.16

Sequence | self-splicing fitness (ln) (30 °C) | self-splicing fitness (ln) (37 °C)
UCAAAGCAAUAUUACGCCAA | -2.7 ± 0.28 | -2.12 ± 0.37
UCAAAGCAAUAUUACGCCGU | -2.43 ± 0.18 | -0.576 ± 0.12
UCAAAGCAAUAUUACGCGGU | -2.75 ± 0.14 | -2.97 ± 0.16
UCAAAGCAAUAUUACGCUCG | -0.615 ± 0.081 | -0.0673 ± 0.12
UCAAAGCAAUAUUACGCUUA | -2.87 ± 0.14 | -2.53 ± 0.17
UCAAAGCAAUAUUACGCUUC | -4.01 ± 0.23 | -2.02 ± 0.23
UCAAAGCAAUAUUACGGACU | -3.52 ± 0.3 | -2.27 ± 0.25
UCAAAGCAAUAUUACGGAGA | -3.38 ± 0.28 | -1.61 ± 0.17
UCAAAGCAAUAUUACGGGUG | -0.366 ± 0.056 | 0.234 ± 0.074
UCAAAGCAAUAUUACGGUGA | -0.776 ± 0.098 | -0.408 ± 0.11
UCAAAGCAAUAUUACGGUUC | -4.38 ± 0.22 | -2.5 ± 0.15
UCAAAGCAAUAUUACGUAAG | -1.77 ± 0.08 | -0.788 ± 0.1
UCAAAGCAAUAUUACGUUAG | -2.02 ± 0.12 | -1.64 ± 0.12
UCAAAGCAAUAUUACGUUAU | -3.43 ± 0.18 | -3.37 ± 0.35
UCAAAGCAAUAUUACGUUCG | -1.17 ± 0.087 | -0.407 ± 0.12
UCAAAGCAAUAUUACGUUUU | -3.28 ± 0.16 | -3.18 ± 0.3
UCACAGCAAUAUUACGAACU | -3.39 ± 0.16 | -2.23 ± 0.15
UCACAGCAAUAUUACGAAUU | -4.34 ± 0.22 | -2.4 ± 0.16
UCACAGCAAUAUUACGACAA | -1.3 ± 0.13 | -0.0758 ± 0.096
